Laboratory results published in the supplement of paper PMC12042874.
± gives the uncertainty stated by the source.

Experiment: amyloid nucleation score (Sup35N fusion, yeast selection) (log enrichment); library NNK3; higher = more nucleation; inactive = no reads after selection
How it was run: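 Three technical output replicates were used for random libraries. Psi-negative yeast expressing peptides of 20 random codons fused to Sup35N were induced with 100 μM copper sulfate for 24 hours and grown 7 days at 30°C on medium lacking adenine and uracil, and input and output plasmid inserts were Illumina-sequenced, excluding sequences with under 100 input reads. The nucleation score is the DiMSum log enrichment of output over input reads, centred on the mode score of non-aggregating sequences.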

Row | Substance | amyloid nucleation score
1 | AAEDRSWSHPATQFLLVVRQ | inactive
2 | AALSSTW | inactive
3 | AAPMS | inactive
4 | AAYGELL | inactive
5 | ACAFS | inactive
6 | ACFVKY | inactive
7 | ACKSGHLNSHKNGYYV | inactive
8 | ACLYY | inactive
9 | ACSVHFFHARW | 1.49 ± 0.14
10 | ACYAAQCWSNF | inactive
11 | ADFGLHRNCRRGCLGMFFL | inactive
12 | ADPDVR | inactive
13 | ADVCNAFRVISICLYAIIVL | inactive
14 | ADVDCFTVNLVYSRYAFVTT | inactive
15 | AEIVCICV | 1.11 ± 0.17
16 | AEMDRRATFTGDHGDGFAIV | inactive
17 | AEVHDDHPMGSDAHIYGTGG | inactive
18 | AEYQPFRQRHVL | inactive
19 | AFIFGCHNGTFKYGKYTCRG | inactive
20 | AFINMMWNSTMDLCRPFLPT | 0.698 ± 0.27
21 | AFKNYVPMFTW | -0.335 ± 0.73
22 | AFMNWVARRKTRWGGLYGGN | inactive
23 | AFNHCETDRLTCL | inactive
24 | AFRSTSQYVY | inactive

Row | Substance | amyloid nucleation score
25 | AFSDGTLSLTSKVRLGDS | inactive
26 | AFVGRWYCGFVASVIFEMQG | 0.069 ± 0.47
27 | AFVSPYR | inactive
28 | AFYVVLTNTVYVGWLQE | inactive
29 | AFYYRVELVYLAC | inactive
30 | AGAGLNKLSVLTVTTLLMIL | inactive
31 | AGAVVDV | inactive
32 | AGDLNYRSGLSGRNYARGFT | inactive
33 | AGPKALIVMPKICDGDIWME | inactive
34 | AGSCVMFGPSW | inactive
35 | AGSIGPVRSRGIMLTRLEV | -0.42 ± 1.8
36 | AHFISFNRYHVARFINAHRL | inactive
37 | AIDHSFT | inactive
38 | AIELIFVLWAFAHCAPCFEL | inactive
39 | AIKLC | inactive
40 | AIKYICSFSSVSVMR | inactive
41 | AIKYILRAALNLNSSSTELE | inactive
42 | AIMFLFLYTRGAYAYYLGLL | inactive
43 | AIRLYLDGIHQMHYYHTLCL | inactive
44 | AISYFSSWGAM | 0.485 ± 0.24
45 | AKNSKKSMLSVNGDRNDQSF | inactive
46 | AKWLEEKLMPAIDVVPGQWL | inactive
47 | ALCKVMSKLPSISW | inactive
48 | ALFLIFSRELHSNDNLLECS | 0.367 ± 0.14

Row | Substance | amyloid nucleation score
49 | ALFSLSWLNQRDSIWVKSDQ | inactive
50 | ALFVGFRF | 1.55 ± 0.12
51 | ALIRITRYYLSFTGY | inactive
52 | ALLKD | inactive
53 | ALNIPVTRGTTPAWFLILLD | inactive
54 | ALNLVLLLCVTRRSRLSQSS | inactive
55 | ALNSLYTFMDRNNRELECGL | -0.688 ± 0.88
56 | ALPYCSLVGCYVCKCRLMWL | 0.541 ± 0.34
57 | ALSDDTDTQAANQLHGCTGW | inactive
58 | ALSHITDLQFLYSIVFQAHM | -0.674 ± 1.3
59 | ALSSNKSCVQYS | inactive
60 | ALVLNRVLRLDVGVSSGCRL | inactive
61 | ALWNTFFLCENTFRMVGFVC | inactive
62 | ALYERWSTDNVWRRSSQEFL | inactive
63 | AMSTPIGMGEVKFKCFILWL | 0.56 ± 0.18
64 | AMTCNDYSRYVF | inactive
65 | AMVRNVYSCLRNRTCFLSSL | inactive
66 | AMVYMMNLEIHVYSIRYA | 1.68 ± 0.094
67 | ANCKG | inactive
68 | ANFQWE | inactive
69 | ANIGKIVKEHRQQSIQHCID | inactive
70 | ANSYLTYN | inactive
71 | ANVLKFIWAFVWASVALLWS | inactive
72 | ANYFTPTNCSVRLRWISDPT | inactive

Row | Substance | amyloid nucleation score
73 | ANYVCKNAVYVMQNNGLVH | inactive
74 | APDQLF | inactive
75 | APDVQYFYSLQD | inactive
76 | APLSNFALHIPEELRLESSF | 0.176 ± 0.77
77 | APSPPMNFSPCKLDLPCWAI | inactive
78 | APYNFKDYCISGIWSGYIMF | inactive
79 | ARFISVCEHEARLRERTCMC | inactive
80 | ARKLFCQTVEENHS | inactive
81 | ARKMRKAMYLRGTSALVPCL | inactive
82 | ARLRVVIDRCLYRGLSQLQP | inactive
83 | ARPNGTTKCVDNGRKPVRII | inactive
84 | ARQTVPSCTLYYWFLSTVKY | inactive
85 | ARSDVSCPWSGRMATVCLTV | inactive
86 | ASAYSTYKVERLGFDGVQSS | inactive
87 | ASFSMG | inactive
88 | ASHMMQRIMTRQ | -0.308 ± 0.84
89 | ASHRGYRQRRKDVFHGIEA | inactive
90 | ASIHMFVLYRWSFG | 0.013 ± 0.75
91 | ASILRTKMLVCKGGKILQLQ | inactive
92 | ASIPGQRYSEPVKPGTCMYV | 1.3 ± 0.14
93 | ASLLLTYWVVTEVCRLDLGL | inactive
94 | ASLPVLPSNPDKSEGAKGHE | -0.681 ± 1.2
95 | ASLRCINFMCWLSQTLGVLL | inactive
96 | ASLTYY | inactive

Row | Substance | amyloid nucleation score
97 | ASNSIKWFADHFPHSFVN | inactive
98 | ASQDI | inactive
99 | ASQSSVLPWNS | inactive
100 | ASRAESVVGSFFCFFL | 2.17 ± 0.087
101 | ASRTAHVSEVQFGCAPGSER | inactive
102 | ASVMLNFC | inactive
103 | ATFQSRFFCCRSRGGTLGCD | inactive
104 | ATFRMGRKVPWS | 1.01 ± 0.23
105 | ATGVMLNDDS | inactive
106 | ATGYGL | inactive
107 | ATMKWFCIKHSFFPIGTCYA | inactive
108 | ATRSLINQQCCRNYASKVLN | inactive
109 | AVATCP | inactive
110 | AVKHHSSTFIFTMGIKLLWL | inactive
111 | AVLSLCINGIVALKGDSGCC | 0.478 ± 0.21
112 | AVMNVHFDSSVMEPIDLNRW | inactive
113 | AVNMLESFFGGVPLRSLCFV | inactive
114 | AVPDVKSAKVDLVNFILAVC | inactive
115 | AVTSVSWLIIIDGALRSVKG | inactive
116 | AVVPAFDLLWRNRLITSMTS | inactive
117 | AVVSIVVLRDKRTFLGRLYL | 1.53 ± 0.087
118 | AVWNFTQFYAENEGHNVSLS | inactive
119 | AWRKPCWGRVNYFLYIVGAG | 2.33 ± 0.088
120 | AWRSMSGVTYPQGTSLPFSK | inactive

Row | Substance | amyloid nucleation score
121 | AWVHLPGQESGYYCCFMNEM | 1.63 ± 0.12
122 | AWYFAP | inactive
123 | AYIFIWWKGANKFVSFNKII | 0.684 ± 0.27
124 | AYLCGANINL | inactive
125 | AYMYSTILGSMPS | 1.44 ± 0.11
126 | AYSRIHSWRMVCKRSNNGVG | 1.41 ± 0.1
127 | AYWCG | inactive
128 | AYWSFFPWGLYARLPGTPVV | inactive
129 | CALGEKLFSGSAYMVYPG | inactive
130 | CASSWLF | inactive
131 | CAWVDRYYKKVIGANRGSLS | inactive
132 | CCAGSLLLNRVQV | inactive
133 | CCKSVKFKSLPARN | 0.725 ± 0.24
134 | CCLFMLFMRMRTHL | inactive
135 | CCRGRAFVGYLLQIIYVRGR | inactive
136 | CCSRACEFVAVKFNRSSYNL | inactive
137 | CCVGYFYGLEV | 2.06 ± 0.064
138 | CDFIDVS | inactive
139 | CDMRP | inactive
140 | CDRLYSNLLRVAAMAPKASW | inactive
141 | CDSLHNDAVYTSLGAWANHP | inactive
142 | CDVQKSLGCHTCWGRDWWNR | inactive
143 | CDWFILKA | inactive
144 | CEVRGCNYTYSVGERCSQN | inactive

Row | Substance | amyloid nucleation score
145 | CFAFGW | inactive
146 | CFAHSLMR | inactive
147 | CFAIYSLLYRVR | 1.55 ± 0.074
148 | CFGRLLRTAILNLCNLFFAL | inactive
149 | CFIKSMRVVMVILPFAPCLK | inactive
150 | CFLAENILFSN | 0.024 ± 0.64
151 | CFLRKTSNASLIHPSRDTNN | inactive
152 | CFLRWNRFL | 0.106 ± 1.1
153 | CFLVNQ | inactive
154 | CFMSNIDIFLDRCMRKGCNH | 2.08 ± 0.072
155 | CFPLSVK | inactive
156 | CFPTTSK | inactive
157 | CFSTPCLCQSNELANIGSPT | inactive
158 | CFVGLRSGAVSCWGQGNYVA | inactive
159 | CGDAPRQVVVGPRYKRSMES | -0.193 ± 0.65
160 | CGDLMPNRYTLSSSNTMSNS | inactive
161 | CGFDMY | 1.84 ± 0.094
162 | CGGANVLYRVQYDPWRS | inactive
163 | CGIMPLSHGIDLMFVRVTPG | inactive
